Results on 3 molecules are retold here after US7122187 (IDEC PHARMACEUTICALS, dated 2006).

B1: humanized 24-31 (version 1) (antibody, V domains shown)
VH: EVQLQESGPGLVKPSETLSLTCTVSGDSITNGFWIWIRKPPGNKLEYMGYISYSGSTYYNPSLKSRISISRDTSKNQFSLKLSSVTAADTGVYYCACRSYGRTPYYFDFWGQGTTLTVSS
VL: DIVMTQSPSFLSASVGDRVTITCKASQNVITAVAWYQQKPGKSPKLLIYSASNRYTGVPDRFSGSGSGTDFTLTISSLQPEDFADYFCQQYNSYPYTFGGGTKLEIK
notes: also called h24-31; humanized Version 1
B2: murine antibody 24-31 (antibody, mouse IgG1, V domains shown)
VH: EVQLQESGPSLVKPSQTLSLTCSVTGDSITNGFWIWIRKFPGNKLEYMGYISYSGSTYYNPSLKSRISITRDTSQNQFYLQLNSVTTEDTGTYYCACRSYGRTPYYFDFWGQGTTLTVSS
VL: DIVMTQSQKFMSTSVGDRVSITCKASQNVITAVAWYQQKPGQSPKLLIYSASNRYTGVPDRFSGSGSGTDFTLTISNMQSEDLADYFCQQYNSYPYTFGGGTKLEIK
notes: Murine IgG1 from hybridoma; also called anti-gp39 24-31 mAb; murine 24-31
B3: humanized 24-31 (version 2) (antibody, V domains shown)
VH: EVQLQESGPGLVKPSETLSLTCTVSGDSITNGFWIWIRKPPGNKLEYMGYISYSGSTYYNPSLKSRISISRDTSKNQFSLKLSSVTAADTGVYYCACRSYGRTPYYFDFWGQGTTLTVSS
VL: DIVMTQSPDSLAVSLGERATINCKASQNVITAVAWYQQKPGQSPKLLIYSASNRYTGVPDRFSGSGSGTDFTLTISSLQAEDVADYFCQQYNSYPYTFGGGTKLEIK
notes: It was expressed from N5KG1 with human kappa and gamma 1 constant regions; also called humanized Version 2; #2 VL with #1 VH

Usually Kd stands for the concentration at which binding is half-saturated.

The target in the assay is T1, human gp39 (cell surface) (human, UniProt P29965 1-261).
T1 construct: whole, on cells; this was read as mgp39-CHO (membrane gp39); also called CD40 ligand; CD40L
T1 sequence (looked up): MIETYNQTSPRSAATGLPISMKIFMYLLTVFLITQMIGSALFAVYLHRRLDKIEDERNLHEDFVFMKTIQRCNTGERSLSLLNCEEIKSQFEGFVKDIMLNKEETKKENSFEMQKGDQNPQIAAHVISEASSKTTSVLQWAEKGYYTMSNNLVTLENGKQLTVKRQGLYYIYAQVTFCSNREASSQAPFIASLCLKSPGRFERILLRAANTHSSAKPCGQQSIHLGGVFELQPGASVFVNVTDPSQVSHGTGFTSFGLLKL
As to the kind of experiment: Scatchard analysis, 125I-labelled antibody competed with unlabelled antibody on gp39-CHO cells. The protocol:
^125I-labeled antibody was mixed and incubated with non-labeled antibody in a dilution series. Based on the total amount of bound antibody and the amount of free antibody, a Scatchard plot was generated from a […] graph. The total antibody concentration was based on a standard size of 75 kD for one active site.
The Kd was calculated by generating a "best fit" line. The inverse of the slope of the curve is the Kd. The correlation coefficient, r^2, was also computed.
Regarding B1, the Kd stood at 5.6 nM. This counts as single-digit nanomolar.
The value for B2 was 8.51 nM; that for B3 was 14 nM.
